Laboratory results published in PMC8369199.

Molecular target: cetuximab (human)
Assay: BLI; cetuximab (20 µg/ml) immobilised on Fab2G sensors; scFv hFc4 25 to 200 nM in kinetics buffer; 1:1 Langmuir model

B1: humanized scFv hFc4 (scFv, V domains shown)
VH: EVQLLESGGGLVQPGGSLRLSCAASGFTFSSYAMNWVRQAPGKGLEFVAGINAAGSGANYAPAVKGRATISRDNSPNTVYLQMNSLRAEDTAVYYCAKGSGSCNHCGGGHGGMIDEWGQGTLVTVSS
VL: SYELMQPPSVSVSPGQTARITCSGGSSTYYGWYQQKPGQAPVTVIYWDDERPSGIPERFSGSSSGNTVTLTINGVQAEDEADYYCGGYDSSVGIFGGGTKLTVL
Kd: 20.5 nM
